Holding throughout (test): cell-based or functional assay
Assay [1] concerns the target T1, RXFP1 receptor (UniProt Q9HBX9 1-757, limits assumed).
T1 sequence (looked up): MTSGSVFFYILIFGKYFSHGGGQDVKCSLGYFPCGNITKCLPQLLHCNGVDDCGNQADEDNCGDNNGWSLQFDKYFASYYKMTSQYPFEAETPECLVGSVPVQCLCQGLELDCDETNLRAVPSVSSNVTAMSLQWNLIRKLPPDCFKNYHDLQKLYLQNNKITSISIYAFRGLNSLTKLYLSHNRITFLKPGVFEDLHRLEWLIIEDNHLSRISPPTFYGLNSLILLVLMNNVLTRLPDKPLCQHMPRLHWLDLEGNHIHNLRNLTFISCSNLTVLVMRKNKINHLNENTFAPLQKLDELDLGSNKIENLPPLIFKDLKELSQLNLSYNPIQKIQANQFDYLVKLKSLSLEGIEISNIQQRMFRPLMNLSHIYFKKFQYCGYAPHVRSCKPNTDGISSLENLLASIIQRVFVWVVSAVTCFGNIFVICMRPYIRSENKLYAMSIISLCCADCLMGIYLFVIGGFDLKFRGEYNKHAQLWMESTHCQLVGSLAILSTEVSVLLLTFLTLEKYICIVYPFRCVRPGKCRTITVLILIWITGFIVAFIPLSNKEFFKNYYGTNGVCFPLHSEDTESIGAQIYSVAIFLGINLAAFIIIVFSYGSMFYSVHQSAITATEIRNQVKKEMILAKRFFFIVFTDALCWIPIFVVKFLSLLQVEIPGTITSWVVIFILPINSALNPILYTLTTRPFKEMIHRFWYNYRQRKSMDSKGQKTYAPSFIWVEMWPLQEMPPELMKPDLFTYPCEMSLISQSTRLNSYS

The target in assay [2] is T1, RXFP1 receptor. This is another data set of the same source.
Assay [3] concerns the target T1, RXFP1 receptor. This is another data set of the same source.

Where two headings read alike, the source gives them in different places. Positions of bridges follow the written chain, without caps; N, C: chain ends. Non-standard residues stand in square brackets, D forms with d. Chains are numbered I, II in the order given. No end group written: not given here. Nle = CCCC[C@H](N)C(=O)O; Aib = CC(C)(N)C(=O)O

In the case of H-VIKLSGRELVRAQIAISGMSTWSKRSL-NH2 [B7-33 C11.23S], in the assay with RXFP1 receptor [1], the “cAMP assay in OVCAR 5 cells EC50” value amounted to 1640 nM and the “cAMP assay in OVCAR 5 cells Emax” value came to 90%.
For Ac-VIKLSGRELVRAQIAISGMSTWSKRSL-NH2 [AcB7-33 C11.23S] the same measures were 929 nM and 70%.

B1: SEQ ID NO: 49 (peptide)
peptide: Ac-LEGREKVRRQI[Aib][Aib]EG[Nle]STWS[Aib]RKK-NH2
SMILES: CCCC[C@H](NC(=O)CNC(=O)[C@H](CCC(=O)O)NC(=O)C(C)(C)NC(=O)C(C)(C)NC(=O)[C@@H](NC(=O)[C@H](CCC(N)=O)NC(=O)[C@H](CCCNC(=N)N)NC(=O)[C@H](CCCNC(=N)N)NC(=O)[C@@H](NC(=O)[C@H](CCCCN)NC(=O)[C@H](CCC(=O)O)NC(=O)[C@H](CCCNC(=N)N)NC(=O)CNC(=O)[C@H](CCC(=O)O)NC(=O)[C@H](CC(C)C)NC(C)=O)C(C)C)[C@@H](C)CC)C(=O)N[C@@H](CO)C(=O)N[C@H](C(=O)N[C@@H](Cc1c[nH]c2ccccc12)C(=O)N[C@@H](CO)C(=O)NC(C)(C)C(=O)N[C@@H](CCCNC(=N)N)C(=O)N[C@@H](CCCCN)C(=O)N[C@@H](CCCCN)C(N)=O)[C@@H](C)O
With B1, in the assay with RXFP1 receptor [2], the “cAMP assay in OVCAR 5 cells EC50” value is 22.2 nM and the “cAMP assay in OVCAR 5 cells Emax” value came out at 95%.
Ac-VIKLSGRELVRAQIAISGMSTWSKKKK-NH2 [KKKK(AcB7-29 C11.23S)]: in the assay with RXFP1 receptor [1], the “cAMP assay in OVCAR 5 cells EC50” value was 206 nM and the “cAMP assay in OVCAR 5 cells Emax” value was 84%.

B2: Human Relaxin-2 (H2 Relaxin) (ligand)
chain 1: H-QLYSALANKCCHVGCTKRSLARFC-OH
chain 2: H-DSWMEEVIKLCGRELVRAQIAICGMSTWS
modifications: disulfide I:10-I:15, I:11-II:11, I:24-II:23
Consider B2, for which the “cAMP assay in OVCAR 5 cells EC50” value with RXFP1 receptor [3] is 0.1 to 0.3 nM.

B3: SEQ ID NO: 48 (peptide)
peptide: Ac-ELEGREKVRAAI[Aib][Aib]EG[Nle]STWS[Aib]RKK-NH2
SMILES: CCCC[C@H](NC(=O)CNC(=O)[C@H](CCC(=O)O)NC(=O)C(C)(C)NC(=O)C(C)(C)NC(=O)[C@@H](NC(=O)[C@H](C)NC(=O)[C@H](C)NC(=O)[C@H](CCCNC(=N)N)NC(=O)[C@@H](NC(=O)[C@H](CCCCN)NC(=O)[C@H](CCC(=O)O)NC(=O)[C@H](CCCNC(=N)N)NC(=O)CNC(=O)[C@H](CCC(=O)O)NC(=O)[C@H](CC(C)C)NC(=O)[C@H](CCC(=O)O)NC(C)=O)C(C)C)[C@@H](C)CC)C(=O)N[C@@H](CO)C(=O)N[C@H](C(=O)N[C@@H](Cc1c[nH]c2ccccc12)C(=O)N[C@@H](CO)C(=O)NC(C)(C)C(=O)N[C@@H](CCCNC(=N)N)C(=O)N[C@@H](CCCCN)C(=O)N[C@@H](CCCCN)C(N)=O)[C@@H](C)O
Consider B3, for which, in the assay with RXFP1 receptor [2], the “cAMP assay in OVCAR 5 cells EC50” value stood at 19.5 nM and the “cAMP assay in OVCAR 5 cells Emax” value is 91%.
